Laboratory results taken from the supplement of paper PMC12042874.
± gives the uncertainty stated by the source.

Experiment: amyloid nucleation score (Sup35N fusion, yeast selection) (log enrichment); library NNK1; higher = more nucleation; inactive = no reads after selection
How it was run: (§1)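 The nucleation score equals the log enrichment of output over input reads from DiMSum, centred on the mode score of non-aggregating sequences. It was computed only for sequences with 100 or more input reads. The reads came from Illumina sequencing of plasmid inserts from psi-negative yeast expressing Sup35N fused to peptides of 20 random codons, induced with 100 μM copper sulfate for 24 hours and grown 7 days at 30°C without adenine and uracil.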

In order of falling amyloid nucleation score:
1. ACLISMMLVLCYI  1.67 ± 0.53
2. ACYNGHTSRWLR  1.09 ± 0.85
3. AAVCRSILVF  0.674 ± 0.88
4. ACYGLIDQLFQLANPYRTAM  0.412 ± 0.32
5. AAFDRNSEGNAPMPVMCPCI  0.34 ± 0.75
6. AACGWHRLICNKFSQFTRGP  -0.021 ± 0.75
7. ACLGVTRGYSGPSTTKSFLR  -0.238 ± 0.46
8. AAKRSETAP  -0.308 ± 0.43
9. ACGRLFDYVAFHRLLDQTHW  -0.617 ± 0.65
10. ADAGGSQVWAYQAQIICPKW  -0.63 ± 1.3
11. ACDRMGGVSGPDSAAVWPYI  -1.91 ± 2.7

Experiment: amyloid nucleation score (Sup35N fusion, yeast selection) (log enrichment); library NNK2; higher = more nucleation; inactive = no reads after selection
How it was run: as §1

In order of falling amyloid nucleation score:
1. YMHCNNCSNVHVWAKKKCRE  8.432 ± 0.043
2. YLCLTFCNIDNLQVMFKSAY  8.209 ± 0.034
3. YICVTMPVWIH  7.536 ± 0.042
4. YMRSWEVLNMCGVSWLCIFA  7.419 ± 0.064
5. YIFGSCGVYLFPPPAKF  6.88 ± 0.078
6. YLNLYLYCVNSSNDSYV  6.513 ± 0.031
7. YFVVCAHPESYSIINRFATV  6.311 ± 0.057
8. YMCRYGFMDNFCAVHVSFVE  5.645 ± 0.055
9. YNGLEVAYLF  5.43 ± 0.062
10. YHLKYRGSMGVPCLNTFVWN  5.15 ± 0.055
11. YNCSI  4.29 ± 0.11
12. YINLIWFSYMFGESFARGQR  4 ± 0.13
13. YIDGDNYHGILCHSRV  3.86 ± 0.11
14. YILMHGSHM  3.73 ± 0.071
15. YFTSGNDDSVFDVYRSIWMV  2.91 ± 0.13
16. YNQVYES  2.84 ± 0.054
17. YMLMMALFQRC  2.75 ± 0.15
18. YMCKVSPLRILSF  2.66 ± 0.056
19. YLTLTYPLLCLALNNLSVVL  2.38 ± 0.15
20. YMSYNYGTVLEFLELPDSHR  1.56 ± 0.11
21. YLCSSRITL  1.31 ± 0.47
22. YKWWDLCLNFPCGRLKAQPR  1.28 ± 0.25
23. YIPCDKANRSFENC  1.19 ± 0.35
24. YGDMAVFVG  1.07 ± 0.41
25. YKRRRWRVENRNGVSFSHTD  0.806 ± 0.3
26. YLTISIAGVVLNLFVIACIV  0.757 ± 0.4
27. YNSNNRAILSLLHDQRNLYG  0.643 ± 0.16
28. YLLSMVRKDPVSRVSLKKGW  0.566 ± 0.66
29. YLASFVFGIVNTYSAVALS  0.552 ± 0.66
30. YNSVKLLEGPFLCSSLTGS  0.444 ± 0.6
31. YLKRPRPRRLGSP  0.405 ± 0.33
32. YNCLACARVKWKSVCGRMSC  0.388 ± 0.32
33. YIGRMVV  0.306 ± 0.65
34. YLARASYS  0.258 ± 0.18
35. YMTPVLDSHSFADVSAIRCV  0.212 ± 0.39
36. YFWSFYEVISFDCYHLIIFS  0.004 ± 0.18
37. YFRLLISCQNRLLVRKLRAA  -0.021 ± 0.79
38. YNGRAIEHCQSMVSFRAVSR  -0.041 ± 0.6
39. YGFGHRGNMTAWLSMATKTF  -0.109 ± 0.76
40. YGVVYAYYPDQVQWVGCNE  -0.24 ± 0.64
41. YLSLVKSPLSSLNSFWTWM  -0.348 ± 0.23
42. YMKTN  -0.38 ± 0.32
43. YLLIPWKSKDPLHIGLLF  -0.381 ± 1.1
44. YMSLNKTAVTCVCHM  -0.425 ± 0.5
45. YKWIIESRMGALPKQLCRRA  -0.465 ± 0.42
46. YNILVK  -0.622 ± 0.43
47. YLSYSTLLPKSETEWMYCVL  -0.631 ± 1
48. YLYILVRNGGASSVC  -0.635 ± 0.4
49. YGIHTFSRYGVIWSCVSV  -0.64 ± 0.49
50. YMVMA  -0.67 ± 1.1
51. YLLHNSLKFRVHHSL  -0.68 ± 0.39
52. YLKKVQWYRQAYFGA  -0.694 ± 0.28
53. YIIDRKEHFLSKCY  -0.738 ± 0.55
54. YKPRGHEVRSVG  -0.752 ± 0.48
55. YNMCYNG  -0.781 ± 1.1
56. YIPMIKL  -0.794 ± 0.43
57. YFSFTGPHLDVA  -0.937 ± 0.34
58. YHKRSPIYSVLYDLDSFK  -1.04 ± 1.1
59. YFVSSC  -1.23 ± 0.35
60. YLKPLAFITSILHAMTRPWH  -1.28 ± 0.75
61. YLMVISEQIGDMCTISS  -1.36 ± 0.76
62. YNTPIIPAWVFSFHQWPEAF  -1.6 ± 1.1
63. YISGWYCVNTVSRNNSYRES  -1.72 ± 0.49

For YGASRNWQKNSLVASEYQVG, the amyloid nucleation score was “inactive”.
For YGSWSPHEAGVYT, the amyloid nucleation score was “inactive”.
In the case of YGYIFISCENVRTQRSVIDG, the amyloid nucleation score is reported as “inactive”.
With YHLGSSLLLCI the amyloid nucleation score was “inactive”.
For YHSFCWANMIHRINSIVRLL, the amyloid nucleation score was “inactive”.
With YKLFWKWGFSGITDDSTLMR the amyloid nucleation score was “inactive”.
In the case of YLIRVHICGCKYVERLFHSV, the amyloid nucleation score is reported as “inactive”.
With YLLYCVS the amyloid nucleation score was “inactive”.
With YLTNLNNCADKSNCW the amyloid nucleation score was “inactive”.
For YMCQRTETMSVSTWGKILCV, the amyloid nucleation score was “inactive”.
In the case of YMYFVFIRSSKSVMIKDVHC, the amyloid nucleation score is reported as “inactive”.
